Assay results published in publication PMC9271601.

Target: H7N9 A/Shanghai/2/2013 hemagglutinin trimer, wild type (influenza A virus A/Shanghai/02/2013 (H7N9)) (UniProt R4NN21)
Assay: cryo-EM structure

H7N9 A/Shanghai/2/2013 hemagglutinin trimer, wild type (from UniProt R4NN21) (natural protein)
stoichiometry N: 3
